Data: US12116428B2, “Lipid analogs and liposomes comprising same” (Yeda Research and Development Co. Ltd., priority 2015, dated 2024)

Columns and labels:
[1] = Zeta potential measurement; assay type: physicochemical; conditions: FIG. 11: SUVs of HSPC and DSG-PMPC
[2] = Micelle formation in water by dynamic light scattering; assay type: physicochemical; conditions: 20 mg/ml in pure water (pH 5), one day

Substance | net charge (zeta potential) [1] | micelle formation [2]
1,2-distearoyl-sn-glycerol-poly((O-(2-methacryloyloxyethyl) phosphorylcholine) [DSG-PMPC] | zero | –
distearoylphosphatidylethanolamine-substituted poly(O-(2-methacryloyloxyethyl)phosphorylcholine) [DSPE-PMPC] | – | formed micelles
